Common to all, as to details: 20 nM; 72 h
The subject of data set [1] is MCF10A. As to the kind of experiment: one-nucleolus phenotype percent effect (relative to siNT 0% and siNOL11 100%); higher = more cells with one nucleolus (ribosome biogenesis inhibition). As to the method:
(§1)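 After 72 h, cells were fixed and stained with Hoechst and anti-fibrillarin, and nucleoli per nucleus were counted with CellProfiler. Values are plate-adjusted percent effect for the one-nucleolus and 5+ nucleoli phenotypes, normalised to siNT (0%) and to the positive controls siNOL11 or siKIF11 (100%), as the mean of biological triplicates. Percent viability is the nuclei count relative to siNT.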

The test system of data set [2] is MCF10A. As to the kind of experiment: 5+ nucleoli phenotype percent effect (relative to siNT 0% and siKIF11 100%); higher = more cells with five or more nucleoli. The protocol: as §1
In data set [3] the test system is MCF10A. As to the kind of experiment: percent viability (nuclei count relative to siNT); higher = more viable cells. The protocol:
as §1

In the case of GGUGGGGGCUGUUGUUU [hsa-miR-4447], the “one-nucleolus phenotype percent effect” value in the data set on MCF10A [1] was found to be 38.7%. Also, the “5+ nucleoli phenotype percent effect” value in the data set on MCF10A [2] is -20.8%. The percent viability in the data set with MCF10A [3] came to 24.5%.
On the same counts, the results for GGGGUGGUCUGUUGUUG [hsa-miR-4483] are -25.2%, 44.6% and 5.44%.
“AGGUGUUAUCCUAUCCAUUUGC [hsa-miR-4694-5p]”: in the data set with MCF10A [1], the “one-nucleolus phenotype percent effect” value is 24.2%. Further, in the data set with MCF10A [2], the “5+ nucleoli phenotype percent effect” value was -15.4%. The percent viability with MCF10A [3] was found to be 25.3%.
On the same counts, the results for AAACAUUCGCGGUGCACUUCUU [hsa-miR-543] are -1.05%, 0.749% and 37.4%.
For CCUCUCCUCCCUGUGCCCCAG [hsa-miR-6845-3p], in that order: -13.8%, 26.2% and 60.1%.
For GUGGAAAGCAUGCAUCCAGGGUGU [hsa-miR-3978], in that order: 15%, -30.5% and 61.1%.
On to “UUACAGUUGUUCAACCAGUUACU [hsa-miR-582-5p]”, for which the “one-nucleolus phenotype percent effect” value with MCF10A [1] is -29.2%. In the data set on MCF10A [2], the “5+ nucleoli phenotype percent effect” value stood at 12.8%. The percent viability in the data set with MCF10A [3] was determined as 165%.
As to AGUGGCAAAGUCUUUCCAUAU [hsa-miR-3688-5p], in the data set with MCF10A [1], the “one-nucleolus phenotype percent effect” value came out at 16%. In the data set on MCF10A [2], the “5+ nucleoli phenotype percent effect” value is -15.4%. Besides, the percent viability in the data set with MCF10A [3] was determined as 31.6%.
On the same counts, the results for “CAGGAUCCACAGAGCUAGUCCA [hsa-miR-4661-3p]” are 7.03%, -16% and 31.4%.
On the same counts, the results for AGACCCUGGUCUGCACUCUAUC [hsa-miR-504] are -10.9%, 3.4% and 64.6%.
CGGGGAGAGAACGCAGUGACGU [hsa-miR-3175]: the “one-nucleolus phenotype percent effect” value in the data set on MCF10A [1] was 5.01%. For the same sequence, the “5+ nucleoli phenotype percent effect” value in the data set with MCF10A [2] is -3.98%. The percent viability in the data set on MCF10A [3] was determined as 33.4%.
For UCAGGGUUGGUAGGGGUUGCU [hsa-miR-6823-5p], in that order: 19.8%, -11.9% and 22.1%.
Turning to CGGGACUGUAGAGGGCAUGAGC [hsa-miR-8052], the “one-nucleolus phenotype percent effect” value in the data set with MCF10A [1] came to 4.6%. Moreover, in the data set with MCF10A [2], the “5+ nucleoli phenotype percent effect” value is 28.9%. Also, the percent viability in the data set on MCF10A [3] was found to be 42.4%.
For UGAAACAUACACGGGAAACCUC [hsa-miR-494], in that order: 34.9%, -37.3% and 24.5%.
For UUGCAGCUGCGGUUGUAAGGU [hsa-miR-5047], in that order: 11.1%, -30.3% and 36.3%.
For “UGCCUCUUUUCCACGGCCUCAG [hsa-miR-6781-3p]”, the “one-nucleolus phenotype percent effect” value in the data set on MCF10A [1] is -1.18%. In addition, the “5+ nucleoli phenotype percent effect” value in the data set on MCF10A [2] was determined as 2.23%. Further, the percent viability in the data set on MCF10A [3] turned out to be 38.9%.
With ACGGUGCUGGAUGUGGCCUUU [hsa-miR-1250], the “one-nucleolus phenotype percent effect” value in the data set on MCF10A [1] turned out to be 57.9%. For the same sequence, the “5+ nucleoli phenotype percent effect” value with MCF10A [2] is -44.5%. The percent viability in the data set with MCF10A [3] is 25%.
For UAGCUUAUCAGACUGAUGUUGA [hsa-miR-21-5p], in that order: -9.39%, 11.7% and 121%.
On the same counts, the results for CUGUAUGCCCUCACCGCUCA [hsa-miR-675-3p] are 0.624%, -14.5% and 37.8%.
On the same counts, the results for “UUGCUCCUGACUCUGUGCCCACA [hsa-miR-6772-3p]” are 1.77%, -4.99% and 32.5%.
For the sequence UGAGUAUUACAUGGCCAAUCUC [hsa-miR-496], the “one-nucleolus phenotype percent effect” value in the data set on MCF10A [1] is 11.1%. Also, in the data set with MCF10A [2], the “5+ nucleoli phenotype percent effect” value was -15.6%. Also, the percent viability in the data set on MCF10A [3] was determined as 42%.
For CAAACCCCUGUCUACCCGCAG [hsa-miR-6771-3p], in that order: 15.7%, -19.1% and 40.5%.
For CUUGGGAGCCCUGUUAGACUC [hsa-miR-887-5p], in that order: -32.3%, 76% and 176%.
On the same counts, the results for CUAGCACACAGAUACGCCCAGA [hsa-miR-585-5p] are 46%, -45.7% and 36.5%.
As to “AGGUUCUGUGAUACACUCCGACU [hsa-miR-152-5p]”, in the data set with MCF10A [1], the “one-nucleolus phenotype percent effect” value amounted to 65.8%. Moreover, the “5+ nucleoli phenotype percent effect” value in the data set on MCF10A [2] was -38.1%. The percent viability with MCF10A [3] came out at 22%.
On the same counts, the results for ACAUUUUCCAGCCCAUUCA [hsa-miR-1250-3p] are 53.7%, -18.3% and 12.3%.
For CAGUGGUUUUACCCUAUGGUAG [hsa-miR-140-5p], in that order: 20.1%, -31.4% and 61.4%.
On the same counts, the results for “UCCCUGAGACCCUUUAACCUGUGA [hsa-miR-125a-5p]” are -18.8%, 28.8% and 117%.
GCCGGGGCUUUGGGUGAGGG [hsa-miR-6784-5p]: the “one-nucleolus phenotype percent effect” value in the data set on MCF10A [1] is -23.3%. The “5+ nucleoli phenotype percent effect” value in the data set on MCF10A [2] is 49%. In the data set with MCF10A [3], the percent viability is 171%.
For the sequence AGGAUGAGCAAAGAAAGUAGAUU [hsa-miR-1255a], the “one-nucleolus phenotype percent effect” value in the data set on MCF10A [1] is -24.4%. Besides, in the data set on MCF10A [2], the “5+ nucleoli phenotype percent effect” value turned out to be 55.6%. For the same sequence, the percent viability in the data set with MCF10A [3] worked out at 128%.
For UUCACAAGGAGGUGUCAUUUAU [hsa-miR-513b], in that order: 14.2%, -29.7% and 62.4%.
As to “CGGGGUUUUGAGGGCGAGAUGA [hsa-miR-193b-5p]”, the “one-nucleolus phenotype percent effect” value in the data set with MCF10A [1] is 25.4%. Moreover, the “5+ nucleoli phenotype percent effect” value in the data set with MCF10A [2] was -32.1%. For the same sequence, in the data set on MCF10A [3], the percent viability is 46.7%.
As for UAGACGUGGUGAAGGAUUGAGUG [hsa-miR-6863], in the data set with MCF10A [1], the “one-nucleolus phenotype percent effect” value came out at 1.02%. Further, in the data set on MCF10A [2], the “5+ nucleoli phenotype percent effect” value was -16.5%. Besides, in the data set with MCF10A [3], the percent viability turned out to be 47.3%.
Take UAUGUAACACGGUCCACUAACC [hsa-miR-411-3p]: the “one-nucleolus phenotype percent effect” value in the data set with MCF10A [1] was -6.25%. Also, the “5+ nucleoli phenotype percent effect” value in the data set on MCF10A [2] was 22.1%. Besides, in the data set on MCF10A [3], the percent viability came out at 76%.
Take “AGGCUCUAACUGGCUUUCCCUGCA [hsa-miR-6822-3p]”: the “one-nucleolus phenotype percent effect” value with MCF10A [1] stood at 32.4%. Moreover, the “5+ nucleoli phenotype percent effect” value in the data set with MCF10A [2] is -24.9%. Besides, the percent viability with MCF10A [3] was 37.9%.
For ACUCAAACUGUGGGGGCACU [hsa-miR-371a-5p], in that order: 3.21%, 15.8% and 79.6%.
For the sequence “UAAUCCUUGCUACCUGGGUGAGA [hsa-miR-500a-5p]”, the “one-nucleolus phenotype percent effect” value in the data set on MCF10A [1] was determined as 19.3%. For the same sequence, in the data set on MCF10A [2], the “5+ nucleoli phenotype percent effect” value was -16.1%. In addition, the percent viability with MCF10A [3] worked out at 55%.
Take AGGCAGGUUAUCUGGGCUG [hsa-miR-4736]: the “one-nucleolus phenotype percent effect” value in the data set with MCF10A [1] is 19.8%. Further, in the data set on MCF10A [2], the “5+ nucleoli phenotype percent effect” value is 13.2%. Further, in the data set on MCF10A [3], the percent viability was determined as 12%.
On to UUGGAGGGUGUGGAAGACAUC [hsa-miR-6515-5p], for which the “one-nucleolus phenotype percent effect” value in the data set on MCF10A [1] was 40.1%. Also, in the data set on MCF10A [2], the “5+ nucleoli phenotype percent effect” value was -18.5%. The percent viability in the data set with MCF10A [3] amounted to 19%.
On the same counts, the results for UACUGCAGACAGUGGCAAUCA [hsa-miR-509-5p] are 7.14%, 5.43% and 48.8%.
As to “UGGGAGAGCAGGGUAUUGUGGA [hsa-miR-6731-5p]”, the “one-nucleolus phenotype percent effect” value with MCF10A [1] is 43%. Besides, in the data set on MCF10A [2], the “5+ nucleoli phenotype percent effect” value was -22.2%. The percent viability in the data set with MCF10A [3] was 6.77%.
On the same counts, the results for “CAGUGCAAUAGUAUUGUCAAAGC [hsa-miR-301a-3p]” are -17.2%, 43.8% and 126%.
On the same counts, the results for “CAGGGCAGAGGGCACAGGAAUCUGA [hsa-miR-6735-5p]” are 11.3%, -26.5% and 31.9%.
For “AGGUUGUCCGUGGUGAGUUCGCA [hsa-miR-323b-5p]”, in that order: -5.61%, 57.7% and 9.9%.
As for “AGAUUGUUUCUUUUGCCGUGCA [hsa-miR-4445-5p]”, in the data set on MCF10A [1], the “one-nucleolus phenotype percent effect” value came out at 34.7%. Moreover, in the data set with MCF10A [2], the “5+ nucleoli phenotype percent effect” value was -21.9%. The percent viability in the data set with MCF10A [3] stood at 19.2%.
For UAGGACACAUGGUCUACUUCU [hsa-miR-1197], in that order: 7.44%, -9.77% and 61.7%.
Turning to AGGGCUUAGCUGCUUGUGAGCA [hsa-miR-27a-5p], in the data set with MCF10A [1], the “one-nucleolus phenotype percent effect” value came to 23.8%. Moreover, in the data set on MCF10A [2], the “5+ nucleoli phenotype percent effect” value was -11.3%. Also, in the data set on MCF10A [3], the percent viability was 19.8%.
With CCAGUGACUGAGCUGGAGCCA [hsa-miR-5190], the “one-nucleolus phenotype percent effect” value in the data set with MCF10A [1] amounted to 29.3%. Moreover, in the data set on MCF10A [2], the “5+ nucleoli phenotype percent effect” value is -11.4%. Also, the percent viability in the data set with MCF10A [3] worked out at 31.7%.

Values taken from the supplement of paper PMC10899765.
